Test results as given in patent US20230257453A1 (published 2023).
Read-outs that look alike come from different tables or passages of the source.

B1: P27622716 (antibody)
chain 1: not shown
chain 2: DIVMTQTPLSLPVTPGEPASISCRSSQSIVSSWGNTYLEWYLQKPGQSPQLLIYKVSNRFSGVPDRFSGSGSGTDFTLKISRVEAEDVGVYYCFQGSHVPWTFGQGTKVEIKRTVAAPSVFIFPPSDEQLKSGTASVVCLLNNFYPREAKVQWKVDNALQSGNSQESVTEQDSKDSTYSLSSTLTLSKADYEKHKVYACEVTHQGLSSPVTKSFNRGEC
B2: P27652716 (antibody, V domains shown)
VH: QVTLKESGPALVKPTQTLTLTCTFSGFSLSTPGMGVWWIRQPPGEGLEWLADIWWDDNKYTNPSLKSRLTISKDTSKNQVVLTMTNMDPVDTATYYCARRANYGNPYYAQDYWGQGTTVTVSS
VL: DIVMTQTPLSLPVTPGEPASISCRSSQSIVSSWGNTYLEWYLQKPGQSPQLLIYKVSNRFSGVPDRFSGSGSGTDFTLKISRVEAEDVGVYYCFQGSHVPWTFGQGTKVEIKR
B3: P27152714 (antibody, V domains shown)
VH: QVTLKESGPALVKPTQTLTLTCTFSGFSLSTPGMGVWWIRQPPGKALEWLADIWWDDNKYTNPSLKSRLTISKDTSKNQVVLTMTNMDPVDTATYYCARRANYGNPYYAQDYWGQGTTVTVSS
VL: DIVMTQTPLSLPVTPGEPASISCRSSQSIVHSQGNTYLEWYLQKPGQSPQLLIYKVSNRFSGVPDRFSGSGSGTDFTLKISRVEAEDVGVYYCFQGSHVPWTFGQGTKVEIKR
B4: P27592716 (antibody, V domains shown)
VH: EVQLVESGGGLVQPGGSLRLSCAASGFSLSTPGMGVWWIRQAPGKGLEWLADIWWDDNKYTNPSLKSRLTISRDNAKNSLYLQMNSLRAEDTAVYYCARRANYGNPYYAQDYWGQGTTVTVSS
VL: DIVMTQTPLSLPVTPGEPASISCRSSQSIVSSWGNTYLEWYLQKPGQSPQLLIYKVSNRFSGVPDRFSGSGSGTDFTLKISRVEAEDVGVYYCFQGSHVPWTFGQGTKVEIKR
B5: P27632716 (antibody, V domains shown)
VH: QVTLKESGPALVKPTQTLTLTCTFSGFSLSTPGMGVWWIRQPPGEALEWLADIWWDDNKYTNPSLKSRLTISKDTSKNQVVLTMTNMDPVDTATYYCARRANYGNPYYAQDYWGQGTTVTVSS
VL: DIVMTQTPLSLPVTPGEPASISCRSSQSIVSSWGNTYLEWYLQKPGQSPQLLIYKVSNRFSGVPDRFSGSGSGTDFTLKISRVEAEDVGVYYCFQGSHVPWTFGQGTKVEIKR
B6: P27642716 (antibody, V domains shown)
VH: QVTLKESGPALVKPTQTLTLTCTFSGFSLSTPGMGVWWIRQPPGKGLEWLADIWWDDNKYTNPSLKSRLTISKDTSKNQVVLTMTNMDPVDTATYYCARRANYGNPYYAQDYWGQGTTVTVSS
VL: DIVMTQTPLSLPVTPGEPASISCRSSQSIVSSWGNTYLEWYLQKPGQSPQLLIYKVSNRFSGVPDRFSGSGSGTDFTLKISRVEAEDVGVYYCFQGSHVPWTFGQGTKVEIKR
B7: P27122714 (antibody)
chain 1: not shown
chain 2: DIVMTQTPLSLPVTPGEPASISCRSSQSIVHSQGNTYLEWYLQKPGQSPQLLIYKVSNRFSGVPDRFSGSGSGTDFTLKISRVEAEDVGVYYCFQGSHVPWTFGQGTKVEIKRTVAAPSVFIFPPSDEQLKSGTASVVCLLNNFYPREAKVQWKVDNALQSGNSQESVTEQDSKDSTYSLSSTLTLSKADYEKHKVYACEVTHQGLSSPVTKSFNRGEC
B8: P27612716 (antibody, V domains shown)
VH: EVQLVESGGGLVQPGGSLRLSCAASGFSLSTPGMGVWWIRQAPGKGLEWLADIWWDDNKYTNPSLKSRLTISKDNAKNSLYLQMNSLRAEDTAVYYCARRANYGNPYYAQDYWGQGTTVTVSS
VL: DIVMTQTPLSLPVTPGEPASISCRSSQSIVSSWGNTYLEWYLQKPGQSPQLLIYKVSNRFSGVPDRFSGSGSGTDFTLKISRVEAEDVGVYYCFQGSHVPWTFGQGTKVEIKR
B9: P27662716 (antibody, V domains shown)
VH: QVTLKESGPALVKPTQTLTLTCTFSGFSLSTPGMGVWWIRQPSGEGLEWLADIWWDDNKYTNPSLKSRLTISKDTSKNQVVLTMTNMDPVDTATYYCARRANYGNPYYAQDYWGQGTTVTVSS
VL: DIVMTQTPLSLPVTPGEPASISCRSSQSIVSSWGNTYLEWYLQKPGQSPQLLIYKVSNRFSGVPDRFSGSGSGTDFTLKISRVEAEDVGVYYCFQGSHVPWTFGQGTKVEIKR
B10: P27582716 (antibody, V domains shown)
VH: EVQLVESGGGLVQPGGSLRLSCAASGFSLSTPGMGVWWIRQAPGKGLEWVADIWWDDNKYTNPSLKSRLTISRDNAKNSLYLQMNSLRAEDTAVYYCARRANYGNPYYAQDYWGQGTTVTVSS
VL: DIVMTQTPLSLPVTPGEPASISCRSSQSIVSSWGNTYLEWYLQKPGQSPQLLIYKVSNRFSGVPDRFSGSGSGTDFTLKISRVEAEDVGVYYCFQGSHVPWTFGQGTKVEIKR
B11: P27602716 (antibody, V domains shown)
VH: EVQLVESGGGLVQPGGSLRLSCAASGFSLSTPGMGVWWVRQAPGKGLEWLADIWWDDNKYTNPSLKSRLTISKDNAKNSLYLQMNSLRAEDTAVYYCARRANYGNPYYAQDYWGQGTTVTVSS
VL: DIVMTQTPLSLPVTPGEPASISCRSSQSIVSSWGNTYLEWYLQKPGQSPQLLIYKVSNRFSGVPDRFSGSGSGTDFTLKISRVEAEDVGVYYCFQGSHVPWTFGQGTKVEIKR
B12: P27122716 (antibody)
chain 1: not shown
chain 2: DIVMTQTPLSLPVTPGEPASISCRSSQSIVSSWGNTYLEWYLQKPGQSPQLLIYKVSNRFSGVPDRFSGSGSGTDFTLKISRVEAEDVGVYYCFQGSHVPWTFGQGTKVEIKRTVAAPSVFIFPPSDEQLKSGTASVVCLLNNFYPREAKVQWKVDNALQSGNSQESVTEQDSKDSTYSLSSTLTLSKADYEKHKVYACEVTHQGLSSPVTKSFNRGEC
B13: P27962797 (antibody)
chain 1: not shown
chain 2: DIVMTQTPLSLPVTPGEPASISCRSSQSIVHSSGNTYLEWYLQKPGQSPQLLIYKVSNRFSGVPDRFSGSGSGTDFTLKISRVEAEDVGVYYCFQGSHVPWTFGQGTKVEIKRTVAAPSVFIFPPSDEQLKSGTASVVCLLNNFYPREAKVQWKVDNALQSGNSQESVTEQDSKDSTYSLSSTLTLSKADYEKHKVYACEVTHQGLSSPVTKSFNRGEC
B14: P27202714 (antibody)
chain 1: not shown
chain 2: DIVMTQTPLSLPVTPGEPASISCRSSQSIVHSQGNTYLEWYLQKPGQSPQLLIYKVSNRFSGVPDRFSGSGSGTDFTLKISRVEAEDVGVYYCFQGSHVPWTFGQGTKVEIKRTVAAPSVFIFPPSDEQLKSGTASVVCLLNNFYPREAKVQWKVDNALQSGNSQESVTEQDSKDSTYSLSSTLTLSKADYEKHKVYACEVTHQGLSSPVTKSFNRGEC
B15: P27202716 (antibody)
chain 1: not shown
chain 2: DIVMTQTPLSLPVTPGEPASISCRSSQSIVSSWGNTYLEWYLQKPGQSPQLLIYKVSNRFSGVPDRFSGSGSGTDFTLKISRVEAEDVGVYYCFQGSHVPWTFGQGTKVEIKRTVAAPSVFIFPPSDEQLKSGTASVVCLLNNFYPREAKVQWKVDNALQSGNSQESVTEQDSKDSTYSLSSTLTLSKADYEKHKVYACEVTHQGLSSPVTKSFNRGEC
B16: P27922716 (antibody)
chain 1: not shown
chain 2: DIVMTQTPLSLPVTPGEPASISCRSSQSIVSSWGNTYLEWYLQKPGQSPQLLIYKVSNRFSGVPDRFSGSGSGTDFTLKISRVEAEDVGVYYCFQGSHVPWTFGQGTKVEIKRTVAAPSVFIFPPSDEQLKSGTASVVCLLNNFYPREAKVQWKVDNALQSGNSQESVTEQDSKDSTYSLSSTLTLSKADYEKHKVYACEVTHQGLSSPVTKSFNRGEC

What was measured:
Assay in all cases: ELISA
[1] = biological target: T1, denatured human collagen I (UniProt P02452 162-1218; P08123 80-1119)
[2] = biological target: T2, denatured human collagen type IV (UniProt P02462 173-1669; P08572 184-1712)
[3] = biological target: T2, denatured human collagen type IV; remark: listed apart in the source
[4] = biological target: T1, denatured human collagen I; remark: listed apart in the source
[5] = biological target: T2, denatured human collagen type IV; remark: listed apart in the source

T1 sequence (P02452 162-1218 A1075T, chain 1 of 2): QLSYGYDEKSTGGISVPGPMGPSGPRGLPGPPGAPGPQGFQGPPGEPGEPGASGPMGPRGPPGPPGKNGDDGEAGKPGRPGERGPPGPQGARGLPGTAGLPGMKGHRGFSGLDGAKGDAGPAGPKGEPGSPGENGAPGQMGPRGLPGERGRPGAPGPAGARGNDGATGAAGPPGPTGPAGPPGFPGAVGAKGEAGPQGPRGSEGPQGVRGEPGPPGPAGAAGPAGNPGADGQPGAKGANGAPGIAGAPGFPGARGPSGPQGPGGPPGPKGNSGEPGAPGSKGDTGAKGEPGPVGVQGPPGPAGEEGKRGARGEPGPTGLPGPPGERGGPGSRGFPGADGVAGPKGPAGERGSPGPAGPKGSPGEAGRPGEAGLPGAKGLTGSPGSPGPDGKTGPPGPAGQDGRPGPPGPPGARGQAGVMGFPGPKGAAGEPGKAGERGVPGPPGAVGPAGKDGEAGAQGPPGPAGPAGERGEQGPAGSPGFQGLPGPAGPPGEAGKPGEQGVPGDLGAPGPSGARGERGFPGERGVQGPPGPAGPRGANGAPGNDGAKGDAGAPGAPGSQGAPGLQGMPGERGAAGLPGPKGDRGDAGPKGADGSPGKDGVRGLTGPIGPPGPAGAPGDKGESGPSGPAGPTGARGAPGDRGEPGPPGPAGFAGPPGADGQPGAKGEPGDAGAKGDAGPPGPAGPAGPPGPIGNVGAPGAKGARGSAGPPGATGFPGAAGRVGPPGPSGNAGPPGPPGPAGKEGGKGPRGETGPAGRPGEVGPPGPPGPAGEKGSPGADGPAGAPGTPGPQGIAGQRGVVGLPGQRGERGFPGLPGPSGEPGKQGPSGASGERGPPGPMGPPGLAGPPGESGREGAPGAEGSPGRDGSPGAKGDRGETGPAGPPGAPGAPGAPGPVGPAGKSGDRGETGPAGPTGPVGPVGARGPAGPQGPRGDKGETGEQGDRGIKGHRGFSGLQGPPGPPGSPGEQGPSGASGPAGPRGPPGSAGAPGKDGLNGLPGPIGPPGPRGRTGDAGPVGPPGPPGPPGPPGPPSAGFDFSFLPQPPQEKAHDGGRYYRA
T1 sequence (P08123 80-1119, chain 2 of 2): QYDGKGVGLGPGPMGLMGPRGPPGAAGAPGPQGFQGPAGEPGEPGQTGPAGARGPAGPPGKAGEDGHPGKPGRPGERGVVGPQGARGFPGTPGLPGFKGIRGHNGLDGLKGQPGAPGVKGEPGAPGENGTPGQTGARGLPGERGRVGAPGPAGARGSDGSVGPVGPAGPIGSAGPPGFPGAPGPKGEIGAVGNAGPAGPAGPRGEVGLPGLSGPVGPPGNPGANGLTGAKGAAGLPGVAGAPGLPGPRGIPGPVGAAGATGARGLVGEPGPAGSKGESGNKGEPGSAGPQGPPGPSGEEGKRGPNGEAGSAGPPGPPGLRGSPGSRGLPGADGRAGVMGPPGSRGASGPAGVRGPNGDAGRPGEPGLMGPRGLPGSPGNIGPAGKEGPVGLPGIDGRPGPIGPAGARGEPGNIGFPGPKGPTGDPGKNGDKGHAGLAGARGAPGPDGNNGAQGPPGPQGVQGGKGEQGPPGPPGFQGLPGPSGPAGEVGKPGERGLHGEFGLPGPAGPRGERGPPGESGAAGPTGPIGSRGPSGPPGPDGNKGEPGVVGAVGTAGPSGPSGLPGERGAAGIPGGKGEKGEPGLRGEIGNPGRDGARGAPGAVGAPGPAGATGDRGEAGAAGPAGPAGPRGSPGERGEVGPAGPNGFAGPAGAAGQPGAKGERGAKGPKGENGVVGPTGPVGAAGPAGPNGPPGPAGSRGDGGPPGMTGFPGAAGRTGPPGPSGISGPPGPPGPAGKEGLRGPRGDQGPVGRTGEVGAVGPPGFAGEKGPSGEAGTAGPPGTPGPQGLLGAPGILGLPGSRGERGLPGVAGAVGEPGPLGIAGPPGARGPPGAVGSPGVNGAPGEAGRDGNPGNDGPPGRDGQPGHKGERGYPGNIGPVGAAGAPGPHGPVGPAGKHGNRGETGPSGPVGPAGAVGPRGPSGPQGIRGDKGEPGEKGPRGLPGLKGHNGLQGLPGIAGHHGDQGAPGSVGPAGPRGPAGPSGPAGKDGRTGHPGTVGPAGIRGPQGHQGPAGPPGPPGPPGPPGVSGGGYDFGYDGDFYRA
T2 sequence (P02462 173-1669, chain 1 of 2): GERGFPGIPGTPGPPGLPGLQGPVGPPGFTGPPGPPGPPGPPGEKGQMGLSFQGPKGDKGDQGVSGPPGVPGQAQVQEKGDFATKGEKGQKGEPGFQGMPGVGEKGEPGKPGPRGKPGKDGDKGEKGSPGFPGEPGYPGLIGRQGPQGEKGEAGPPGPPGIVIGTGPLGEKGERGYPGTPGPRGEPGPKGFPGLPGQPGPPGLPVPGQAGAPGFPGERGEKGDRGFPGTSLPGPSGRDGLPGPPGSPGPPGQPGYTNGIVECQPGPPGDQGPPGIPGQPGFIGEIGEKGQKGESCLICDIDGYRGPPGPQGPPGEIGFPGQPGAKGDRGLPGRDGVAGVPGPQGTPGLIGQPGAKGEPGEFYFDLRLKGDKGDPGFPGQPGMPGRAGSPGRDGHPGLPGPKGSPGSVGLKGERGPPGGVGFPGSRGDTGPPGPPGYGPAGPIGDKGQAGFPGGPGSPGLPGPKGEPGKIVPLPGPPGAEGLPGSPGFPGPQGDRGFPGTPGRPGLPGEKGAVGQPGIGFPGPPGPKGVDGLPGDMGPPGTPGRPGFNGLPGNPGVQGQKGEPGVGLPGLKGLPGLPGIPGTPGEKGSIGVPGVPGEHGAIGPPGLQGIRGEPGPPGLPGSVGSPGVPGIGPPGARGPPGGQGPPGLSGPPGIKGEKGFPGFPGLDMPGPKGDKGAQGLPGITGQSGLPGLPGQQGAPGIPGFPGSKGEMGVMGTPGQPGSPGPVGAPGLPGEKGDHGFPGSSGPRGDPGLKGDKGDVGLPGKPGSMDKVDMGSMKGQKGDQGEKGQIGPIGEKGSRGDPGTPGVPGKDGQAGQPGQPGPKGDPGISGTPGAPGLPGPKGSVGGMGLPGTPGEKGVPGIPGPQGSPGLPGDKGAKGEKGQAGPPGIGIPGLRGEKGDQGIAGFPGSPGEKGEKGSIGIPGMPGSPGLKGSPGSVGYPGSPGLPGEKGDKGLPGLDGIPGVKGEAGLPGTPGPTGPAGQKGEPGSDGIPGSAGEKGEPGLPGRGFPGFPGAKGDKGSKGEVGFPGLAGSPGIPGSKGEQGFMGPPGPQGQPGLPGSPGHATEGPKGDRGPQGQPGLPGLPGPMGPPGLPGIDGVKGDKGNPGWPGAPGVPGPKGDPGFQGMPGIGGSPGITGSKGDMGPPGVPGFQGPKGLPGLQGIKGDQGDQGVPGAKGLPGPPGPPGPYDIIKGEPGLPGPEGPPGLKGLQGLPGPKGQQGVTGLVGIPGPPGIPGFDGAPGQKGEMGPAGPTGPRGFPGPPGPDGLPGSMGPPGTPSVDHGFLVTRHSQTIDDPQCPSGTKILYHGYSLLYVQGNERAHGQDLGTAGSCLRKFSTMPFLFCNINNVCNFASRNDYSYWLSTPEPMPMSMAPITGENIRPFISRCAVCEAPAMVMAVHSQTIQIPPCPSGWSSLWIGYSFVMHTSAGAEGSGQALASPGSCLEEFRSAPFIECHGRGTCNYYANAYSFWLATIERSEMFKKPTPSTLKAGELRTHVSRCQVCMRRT
T2 sequence (P08572 184-1712, chain 2 of 2): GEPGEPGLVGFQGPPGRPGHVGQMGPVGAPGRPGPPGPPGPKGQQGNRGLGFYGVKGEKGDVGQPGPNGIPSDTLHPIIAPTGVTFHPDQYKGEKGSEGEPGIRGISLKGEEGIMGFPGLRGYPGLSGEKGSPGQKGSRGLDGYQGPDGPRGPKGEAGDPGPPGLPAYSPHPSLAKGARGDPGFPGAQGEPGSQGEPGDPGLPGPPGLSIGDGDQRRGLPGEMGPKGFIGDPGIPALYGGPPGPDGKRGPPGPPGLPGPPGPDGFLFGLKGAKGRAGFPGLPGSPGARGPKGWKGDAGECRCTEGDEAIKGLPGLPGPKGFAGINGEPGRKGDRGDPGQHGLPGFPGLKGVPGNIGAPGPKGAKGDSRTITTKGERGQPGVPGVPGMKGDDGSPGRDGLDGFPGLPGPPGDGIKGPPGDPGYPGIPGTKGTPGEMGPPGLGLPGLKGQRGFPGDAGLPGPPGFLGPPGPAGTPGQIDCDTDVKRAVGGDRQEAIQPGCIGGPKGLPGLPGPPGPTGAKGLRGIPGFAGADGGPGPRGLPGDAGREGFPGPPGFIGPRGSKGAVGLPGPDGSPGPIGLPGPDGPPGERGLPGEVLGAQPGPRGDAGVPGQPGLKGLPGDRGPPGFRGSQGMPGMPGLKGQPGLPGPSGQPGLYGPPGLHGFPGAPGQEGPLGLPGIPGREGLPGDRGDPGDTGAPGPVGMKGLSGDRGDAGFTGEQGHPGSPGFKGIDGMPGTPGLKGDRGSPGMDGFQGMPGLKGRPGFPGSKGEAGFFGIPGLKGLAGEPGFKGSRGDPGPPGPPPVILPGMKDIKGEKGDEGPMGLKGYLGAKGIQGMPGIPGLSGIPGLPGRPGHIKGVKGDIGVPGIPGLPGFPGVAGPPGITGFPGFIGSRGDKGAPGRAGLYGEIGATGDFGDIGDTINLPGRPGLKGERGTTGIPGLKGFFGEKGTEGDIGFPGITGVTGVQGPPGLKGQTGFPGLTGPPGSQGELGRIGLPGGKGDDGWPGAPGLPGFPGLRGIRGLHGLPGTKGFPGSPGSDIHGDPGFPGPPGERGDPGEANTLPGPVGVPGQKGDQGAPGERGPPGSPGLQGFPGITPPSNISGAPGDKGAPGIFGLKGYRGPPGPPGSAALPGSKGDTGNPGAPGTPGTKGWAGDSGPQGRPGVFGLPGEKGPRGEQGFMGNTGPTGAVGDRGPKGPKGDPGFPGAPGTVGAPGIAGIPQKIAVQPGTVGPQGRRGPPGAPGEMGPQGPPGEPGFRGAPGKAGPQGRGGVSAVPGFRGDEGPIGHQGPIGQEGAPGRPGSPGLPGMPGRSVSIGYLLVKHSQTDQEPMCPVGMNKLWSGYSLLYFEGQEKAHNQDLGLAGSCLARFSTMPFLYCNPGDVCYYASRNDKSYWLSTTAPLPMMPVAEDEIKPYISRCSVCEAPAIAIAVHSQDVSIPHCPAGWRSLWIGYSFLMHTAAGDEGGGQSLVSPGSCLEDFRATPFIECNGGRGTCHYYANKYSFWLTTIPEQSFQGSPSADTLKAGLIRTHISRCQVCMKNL

Binder	EC50 [1] [nM]	EC50 [2] [nM]	EC50 [3] [nM]	EC50 [4] [nM]	EC50 [5] [nM]
B1	3.73	4.01	–	–	–
B2	11.9	9.91	–	–	–
B3	–	–	13	18.5	–
B4	2.44	1.86	–	–	–
B5	3.04	5.05	–	–	–
B6	2.39	1.69	–	–	–
B7	–	–	33.9	80.8	–
B8	10.9	6.13	–	–	–
B9	9.81	9.77	–	–	–
B10	9.38	3.83	–	–	–
B11	21.1	11.9	–	–	–
B12	–	–	125	19	–
B13	–	–	–	–	6.48
B14	–	–	–	–	30.4
B15	–	–	–	–	3.34
B16	–	–	–	–	4.5
